Measurements taken from article PMC9482650, “Quantitative fragmentomics allow affinity mapping of interactomes” (Nature Communications, 2022).

T1: PDZD7_3, Q9H5P4
T1 sequence (Q9H5P4 857-944, limits assumed, looked up): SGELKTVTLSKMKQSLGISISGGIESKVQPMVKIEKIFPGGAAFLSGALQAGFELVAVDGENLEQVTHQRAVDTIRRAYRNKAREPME

T2: LNX2_2, Q8N448
T2 sequence (Q8N448 334-432, limits assumed, looked up): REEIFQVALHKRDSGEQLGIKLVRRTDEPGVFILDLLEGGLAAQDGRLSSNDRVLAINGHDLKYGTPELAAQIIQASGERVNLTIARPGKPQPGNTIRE

T3: MPDZ_12, O75970
T3 sequence (O75970 1857-1958, limits assumed, looked up): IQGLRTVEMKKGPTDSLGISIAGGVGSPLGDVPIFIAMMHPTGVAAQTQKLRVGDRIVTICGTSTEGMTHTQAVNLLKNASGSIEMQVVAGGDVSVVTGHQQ

T4: APBA2_1, Q99767
T4 sequence (Q99767 563-664, limits assumed, looked up): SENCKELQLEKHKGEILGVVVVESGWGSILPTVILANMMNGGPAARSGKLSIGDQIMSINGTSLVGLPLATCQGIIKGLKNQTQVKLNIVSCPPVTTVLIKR

T5: MPP7, Q5T2T1
T5 sequence (Q5T2T1 134-230, limits assumed, looked up): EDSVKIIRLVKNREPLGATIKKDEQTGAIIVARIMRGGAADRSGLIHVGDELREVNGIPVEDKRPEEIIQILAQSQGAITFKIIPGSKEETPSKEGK

T6: TIAM2, Q8IVF5
T6 sequence (Q8IVF5 885-986, limits assumed, looked up): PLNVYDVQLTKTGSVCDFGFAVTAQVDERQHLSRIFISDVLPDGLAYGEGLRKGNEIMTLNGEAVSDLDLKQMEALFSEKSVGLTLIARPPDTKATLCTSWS

T7: GRIP1_7, Q9Y3R0
T7 sequence (Q9Y3R0 999-1096, limits assumed, looked up): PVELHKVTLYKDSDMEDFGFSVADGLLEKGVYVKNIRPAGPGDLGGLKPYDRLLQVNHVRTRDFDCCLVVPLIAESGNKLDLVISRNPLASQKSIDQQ

T8: NHERF3_3, Q5T2W1
T8 sequence (Q5T2W1 238-333, limits assumed, looked up): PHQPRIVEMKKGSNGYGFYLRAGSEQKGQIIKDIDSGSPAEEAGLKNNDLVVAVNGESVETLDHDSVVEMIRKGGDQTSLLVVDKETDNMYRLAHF

T9: SNTG1, Q9NSN8
T9 sequence (Q9NSN8 52-150, limits assumed, looked up): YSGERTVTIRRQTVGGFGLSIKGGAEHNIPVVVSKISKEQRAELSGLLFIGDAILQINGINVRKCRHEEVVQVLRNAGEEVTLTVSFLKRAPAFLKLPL

T10: APBA2_2, Q99767
T10 sequence (Q99767 654-744, limits assumed, looked up): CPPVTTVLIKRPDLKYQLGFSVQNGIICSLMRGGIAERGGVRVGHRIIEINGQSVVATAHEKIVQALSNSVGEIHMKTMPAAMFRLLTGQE

T11: HTRA4, P83105
T11 sequence (P83105 378-476, limits assumed, looked up): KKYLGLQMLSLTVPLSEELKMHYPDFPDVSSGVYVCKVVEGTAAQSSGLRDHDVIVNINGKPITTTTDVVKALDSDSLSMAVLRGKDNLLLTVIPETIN

T12: FRMPD1, Q5SYB0
T12 sequence (Q5SYB0 52-145, limits assumed, looked up): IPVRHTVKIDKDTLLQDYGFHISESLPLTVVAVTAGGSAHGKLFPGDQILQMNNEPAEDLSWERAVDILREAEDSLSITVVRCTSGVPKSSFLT

T13: CARD11, Q9BXL7
T13 sequence (Q9BXL7 662-765, limits assumed, looked up): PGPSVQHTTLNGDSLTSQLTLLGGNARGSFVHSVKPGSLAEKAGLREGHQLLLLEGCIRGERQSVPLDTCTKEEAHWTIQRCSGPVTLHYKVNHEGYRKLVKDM

T14: MPP2, Q14168
T14 sequence (Q14168 180-250, limits assumed, looked up): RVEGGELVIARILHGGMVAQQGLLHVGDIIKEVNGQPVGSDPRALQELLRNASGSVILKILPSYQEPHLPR

T15: DVL3, Q92997
T15 sequence (Q92997 244-331, limits assumed, looked up): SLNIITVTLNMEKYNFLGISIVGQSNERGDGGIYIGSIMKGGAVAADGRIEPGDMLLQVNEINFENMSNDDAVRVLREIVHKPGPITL


These binders were tested against SCRIB_1, Q14160 (assay: holdup assay). Settings: plain residues with an end cap or a label only (N-terminal biotin on a linker: ado-ado).
Design: key: below the threshold = too weak to quantify, mostly under pKd 3.1 to 4

Sequence of SCRIB_1, Q14160 (Q14160 718-814): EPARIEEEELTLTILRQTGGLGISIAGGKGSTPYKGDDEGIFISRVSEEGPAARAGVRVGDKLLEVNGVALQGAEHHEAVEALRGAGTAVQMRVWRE

Row | Binder | pKd
1 | GQNMTVSVVI [PRLHR, P49683] | 3.65
2 | GTMFLRETSL [GUCY1A2, P33402] | 5.69

What follows are binders tested against T1, PDZD7_3, Q9H5P4 (assay: holdup assay). Settings: plain residues with an end cap or a label only (N-terminal biotin on a linker: ado-ado).
Design: key: below the threshold = too weak to quantify, mostly under pKd 3.1 to 4

Row | Binder | pKd
3 | GQNMTVSVVI [PRLHR, P49683] | 4.4
4 | GTMFLRETSL [GUCY1A2, P33402] | 4.97

The binders below were run against T2, LNX2_2, Q8N448 (assay: holdup assay). Settings: plain residues with an end cap or a label only (N-terminal biotin on a linker: ado-ado).
Design: key: below the threshold = too weak to quantify, mostly under pKd 3.1 to 4

Row | Binder | pKd
5 | GQNMTVSVVI [PRLHR, P49683] | 5.11
6 | GTMFLRETSL [GUCY1A2, P33402] | below the threshold

These binders were tested against T3, MPDZ_12, O75970 (assay: holdup assay). Settings: plain residues with an end cap or a label only (N-terminal biotin on a linker: ado-ado).
Design: key: below the threshold = too weak to quantify, mostly under pKd 3.1 to 4

Row | Binder | pKd
7 | GQNMTVSVVI [PRLHR, P49683] | below the threshold
8 | GTMFLRETSL [GUCY1A2, P33402] | below the threshold

These binders were tested against Inadl_3, Q8NI35 (assay: holdup assay). Settings: plain residues with an end cap or a label only (N-terminal biotin on a linker: ado-ado).
Design: key: below the threshold = too weak to quantify, mostly under pKd 3.1 to 4

Sequence of Inadl_3, Q8NI35 (Q8NI35 359-469): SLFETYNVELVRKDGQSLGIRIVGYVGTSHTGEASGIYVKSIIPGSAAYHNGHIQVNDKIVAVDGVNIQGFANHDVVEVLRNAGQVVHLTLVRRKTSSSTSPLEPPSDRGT

Row | Binder | pKd
9 | GQNMTVSVVI [PRLHR, P49683] | 4.52
10 | GTMFLRETSL [GUCY1A2, P33402] | below the threshold

Each binder was assayed against TJP1_2, Q07157 (assay: holdup assay). Settings: plain residues with an end cap or a label only (N-terminal biotin on a linker: ado-ado).
Design: key: below the threshold = too weak to quantify, mostly under pKd 3.1 to 4

Sequence of TJP1_2, Q07157 (Q07157 181-274): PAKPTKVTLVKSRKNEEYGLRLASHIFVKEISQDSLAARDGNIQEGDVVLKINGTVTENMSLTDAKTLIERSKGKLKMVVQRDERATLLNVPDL

Row | Binder | pKd
11 | GQNMTVSVVI [PRLHR, P49683] | 3.69
12 | GTMFLRETSL [GUCY1A2, P33402] | below the threshold

These binders were tested against T4, APBA2_1, Q99767 (assay: holdup assay). Settings: plain residues with an end cap or a label only (N-terminal biotin on a linker: ado-ado).
Design: key: below the threshold = too weak to quantify, mostly under pKd 3.1 to 4

Row | Binder | pKd
13 | GQNMTVSVVI [PRLHR, P49683] | below the threshold
14 | GTMFLRETSL [GUCY1A2, P33402] | below the threshold

These binders were tested against LIMK2, P53671 (assay: holdup assay). Settings: plain residues with an end cap or a label only (N-terminal biotin on a linker: ado-ado).
Design: key: below the threshold = too weak to quantify, mostly under pKd 3.1 to 4

Sequence of LIMK2, P53671 (P53671 143-248): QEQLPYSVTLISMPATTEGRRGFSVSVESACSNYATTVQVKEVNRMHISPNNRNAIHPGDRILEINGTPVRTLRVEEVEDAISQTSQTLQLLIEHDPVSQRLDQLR

Row | Binder | pKd
15 | GQNMTVSVVI [PRLHR, P49683] | below the threshold
16 | GTMFLRETSL [GUCY1A2, P33402] | below the threshold

The binders below were run against GRIP2_3, Q9C0E4 (assay: holdup assay). Settings: plain residues with an end cap or a label only (N-terminal biotin on a linker: ado-ado).
Design: key: below the threshold = too weak to quantify, mostly under pKd 3.1 to 4

Sequence of GRIP2_3, Q9C0E4 (Q9C0E4 238-339): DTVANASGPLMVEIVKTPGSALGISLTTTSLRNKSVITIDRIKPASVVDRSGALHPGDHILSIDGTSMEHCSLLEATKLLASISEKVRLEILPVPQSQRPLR

Row | Binder | pKd
17 | GQNMTVSVVI [PRLHR, P49683] | below the threshold
18 | GTMFLRETSL [GUCY1A2, P33402] | below the threshold

The binders below were run against T5, MPP7, Q5T2T1 (assay: holdup assay). Settings: plain residues with an end cap or a label only (N-terminal biotin on a linker: ado-ado).
Design: key: below the threshold = too weak to quantify, mostly under pKd 3.1 to 4

Row | Binder | pKd
19 | GQNMTVSVVI [PRLHR, P49683] | below the threshold
20 | GTMFLRETSL [GUCY1A2, P33402] | below the threshold

These binders were tested against MAST2, Q6P0Q8 (assay: holdup assay). Settings: plain residues with an end cap or a label only (N-terminal biotin on a linker: ado-ado).
Design: key: below the threshold = too weak to quantify, mostly under pKd 3.1 to 4

Sequence of MAST2, Q6P0Q8 (Q6P0Q8 1099-1202): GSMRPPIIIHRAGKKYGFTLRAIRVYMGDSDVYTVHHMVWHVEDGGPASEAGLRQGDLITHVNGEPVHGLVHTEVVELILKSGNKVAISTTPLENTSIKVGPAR

Row | Binder | pKd
21 | GQNMTVSVVI [PRLHR, P49683] | below the threshold
22 | GTMFLRETSL [GUCY1A2, P33402] | 5.68

Each binder was assayed against T6, TIAM2, Q8IVF5 (assay: holdup assay). Settings: plain residues with an end cap or a label only (N-terminal biotin on a linker: ado-ado).
Design: key: below the threshold = too weak to quantify, mostly under pKd 3.1 to 4

Row | Binder | pKd
23 | GQNMTVSVVI [PRLHR, P49683] | 4.2
24 | GTMFLRETSL [GUCY1A2, P33402] | 3.66

These binders were tested against T7, GRIP1_7, Q9Y3R0 (assay: holdup assay). Settings: plain residues with an end cap or a label only (N-terminal biotin on a linker: ado-ado).
Design: key: below the threshold = too weak to quantify, mostly under pKd 3.1 to 4

Row | Binder | pKd
25 | GQNMTVSVVI [PRLHR, P49683] | below the threshold
26 | GTMFLRETSL [GUCY1A2, P33402] | below the threshold

What follows are binders tested against T8, NHERF3_3, Q5T2W1 (assay: holdup assay). Settings: plain residues with an end cap or a label only (N-terminal biotin on a linker: ado-ado).
Design: key: below the threshold = too weak to quantify, mostly under pKd 3.1 to 4

Row | Binder | pKd
27 | GQNMTVSVVI [PRLHR, P49683] | 4.02
28 | GTMFLRETSL [GUCY1A2, P33402] | below the threshold

Each binder was assayed against T9, SNTG1, Q9NSN8 (assay: holdup assay). Settings: plain residues with an end cap or a label only (N-terminal biotin on a linker: ado-ado).
Design: key: below the threshold = too weak to quantify, mostly under pKd 3.1 to 4

Row | Binder | pKd
29 | GQNMTVSVVI [PRLHR, P49683] | below the threshold
30 | GTMFLRETSL [GUCY1A2, P33402] | 5.09

These binders were tested against T10, APBA2_2, Q99767 (assay: holdup assay). Settings: plain residues with an end cap or a label only (N-terminal biotin on a linker: ado-ado).
Design: key: below the threshold = too weak to quantify, mostly under pKd 3.1 to 4

Row | Binder | pKd
31 | GQNMTVSVVI [PRLHR, P49683] | below the threshold
32 | GTMFLRETSL [GUCY1A2, P33402] | below the threshold

The binders below were run against T11, HTRA4, P83105 (assay: holdup assay). Settings: plain residues with an end cap or a label only (N-terminal biotin on a linker: ado-ado).
Design: key: below the threshold = too weak to quantify, mostly under pKd 3.1 to 4

Row | Binder | pKd
33 | GQNMTVSVVI [PRLHR, P49683] | 4.15
34 | GTMFLRETSL [GUCY1A2, P33402] | 3.85

These binders were tested against T12, FRMPD1, Q5SYB0 (assay: holdup assay). Settings: plain residues with an end cap or a label only (N-terminal biotin on a linker: ado-ado).
Design: key: below the threshold = too weak to quantify, mostly under pKd 3.1 to 4

Row | Binder | pKd
35 | GQNMTVSVVI [PRLHR, P49683] | below the threshold
36 | GTMFLRETSL [GUCY1A2, P33402] | below the threshold

These binders were tested against AHNAK1, Q09666 (assay: holdup assay). Settings: plain residues with an end cap or a label only (N-terminal biotin on a linker: ado-ado).
Design: key: below the threshold = too weak to quantify, mostly under pKd 3.1 to 4

Sequence of AHNAK1, Q09666 (Q09666 4-100): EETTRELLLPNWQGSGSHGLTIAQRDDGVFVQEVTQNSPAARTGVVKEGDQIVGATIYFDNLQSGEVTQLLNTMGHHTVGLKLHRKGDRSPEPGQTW

Row | Binder | pKd
37 | GQNMTVSVVI [PRLHR, P49683] | below the threshold
38 | GTMFLRETSL [GUCY1A2, P33402] | below the threshold

What follows are binders tested against T13, CARD11, Q9BXL7 (assay: holdup assay). Settings: plain residues with an end cap or a label only (N-terminal biotin on a linker: ado-ado).
Design: key: below the threshold = too weak to quantify, mostly under pKd 3.1 to 4

Row | Binder | pKd
39 | GQNMTVSVVI [PRLHR, P49683] | below the threshold
40 | GTMFLRETSL [GUCY1A2, P33402] | below the threshold

These binders were tested against T14, MPP2, Q14168 (assay: holdup assay). Settings: plain residues with an end cap or a label only (N-terminal biotin on a linker: ado-ado).
Design: key: below the threshold = too weak to quantify, mostly under pKd 3.1 to 4

Row | Binder | pKd
41 | GQNMTVSVVI [PRLHR, P49683] | below the threshold
42 | GTMFLRETSL [GUCY1A2, P33402] | below the threshold

Each binder was assayed against ARHGEF12, Q9NZN5-2 (assay: holdup assay). Settings: plain residues with an end cap or a label only (N-terminal biotin on a linker: ado-ado).
Design: key: below the threshold = too weak to quantify, mostly under pKd 3.1 to 4

Sequence of ARHGEF12, Q9NZN5-2 (Q9NZN5 other isoform, or with tags, fused parts or gaps): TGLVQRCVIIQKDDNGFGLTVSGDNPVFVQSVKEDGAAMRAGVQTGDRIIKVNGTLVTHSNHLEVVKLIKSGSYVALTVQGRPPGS

Row | Binder | pKd
43 | GQNMTVSVVI [PRLHR, P49683] | 4.13
44 | GTMFLRETSL [GUCY1A2, P33402] | 4.93

Each binder was assayed against T15, DVL3, Q92997 (assay: holdup assay). Settings: plain residues with an end cap or a label only (N-terminal biotin on a linker: ado-ado).
Design: key: below the threshold = too weak to quantify, mostly under pKd 3.1 to 4

Row | Binder | pKd
45 | GQNMTVSVVI [PRLHR, P49683] | below the threshold
46 | GTMFLRETSL [GUCY1A2, P33402] | below the threshold
